Reference: paper PMC10235961

Target: OleTPRN, CYP152 decarboxylase from Rothia nassimurium forming terminal (poly-unsaturated) olefins, wild type (Rothia nassimurium)
Assay: SEC

With “OleTPRN, CYP152 decarboxylase from Rothia nassimurium forming terminal (poly-unsaturated) olefins, wild type (enzyme)” the stoichiometry N was 2.
